Experimental data from paper PMC8996997, “YY1 Oligomerization Is Regulated by Its OPB Domain and Competes with Its Regulation of Oncoproteins” (Cancers, 2022).

Target: T1, His×6-YY1(wt) (human, UniProt P25490 1-414)
T1 construct: Yin Yang 1 (YY1), wild type; also called Yin Yang 1; source: bacteria, recombinant, purified
Assay: SPR; Biacore T200; about 12,000 RU of His×6-YY1(wt) immobilised by amine coupling on a CM5 chip; analytes at 62.5, 125, 250, 500 and 1000 nM
Conditions: both partners purified

B1: His×6-YY1(260–414) (domain or fragment, human, UniProt P25490 260-414, looked up)
chain: LPPGGIPGIDLSDPKQLAEFARMKPRKIKEDDAPRTIACPHKGCTKMFRDNSAMRKHLHTHGPRVHVCAECGKAFVESSKLKRHQLVHTGEKPFQCTFEGCGKRFSLDFNLRTHVRIHTGDRPYVCPFDGCNKKFAQSTNLKSHILTHAKAKNNQ
notes: source: bacteria, recombinant, purified
B1: binds.
